The supplement of paper PMC7877785
± gives the uncertainty stated by the source.

Assay: self-splicing fitness, log relative to wild type (ln ratio); higher = more splicing; Tetrahymena group I intron in knt gene, E. coli kanamycin selection, DiMSum; sequences stand for … in CUCUCU…GGAGGGAAAAGUUAUCAGGCAUGCACCUGGUAGCUAGUCUUUAAACCAAUAGAUUGCAUCGGUUUAAAAGGCAAGACCGUCAAAUUGCGGGAAAGGGGUCAACAGCCGUUCAGUACCAAGUCUCAGGGGAAACUUUGAGAUGGCCUUGCAAAGGGUAUGGUAAUAAGCUGACGGACAUGGUCCUAACCACGCAGCCAAGUCCUAAGUCAACAGAUCUUCUGUUGAUAUGGAUGCAGUUCACAGACUAAAUGUCGGUCGGGGAAGAUGUAUUCUUCUCAUAAGAUAUAGUCGGACCUCUCCUUAAUGGGAGCUAGCGGAUGAAGUGAUGCAACACUGGAGCCGCUGGGAACUAAUUUGUAUGCGAAAGUAUAUUGAUUAGUUUUGGAGUACUCGUGGUCG
In short: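 Six replicate transformations of E. coli BL21(DE3) with a pET-22b(+) library were grown overnight at 37°C or 30°C. The library randomised all eight P1ex-region intron nucleotides, the intron lying in the knt kanamycin-resistance gene, and plates were LB agar with or without 25 μg/mL kanamycin plus 100 μg/mL carbenicillin, 50 μM IPTG and 0.2% rhamnose. Pooled colonies were amplicon-sequenced on an Illumina HiSeq 2500, and fitness is the DiMSum error-weighted combination of wild-type-normalised replicate fold changes, kanamycin versus none.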

Row | Sequence | self-splicing fitness (ln) (30 °C) | self-splicing fitness (ln) (37 °C)
1 | GCAUAGCAAUAUUACGAGUA | -1.63 ± 0.15 | -1.23 ± 0.12
2 | GCAUAGCAAUAUUACGAUCC | -0.993 ± 0.19 | 0.0935 ± 0.28
3 | GCAUAGCAAUAUUACGAUCU | -0.849 ± 0.075 | -0.178 ± 0.081
4 | GCAUAGCAAUAUUACGCCCC | -0.129 ± 0.26 | 0.692 ± 0.34
5 | GCAUAGCAAUAUUACGCUAU | -4.09 ± 0.28 | -1.97 ± 0.25
6 | GCAUAGCAAUAUUACGCUCA | -0.595 ± 0.12 | -0.211 ± 0.15
7 | GCAUAGCAAUAUUACGCUCU | -1.81 ± 0.12 | -0.894 ± 0.12
8 | GCAUAGCAAUAUUACGCUGA | -2.69 ± 0.24 | -1.06 ± 0.14
9 | GCAUAGCAAUAUUACGCUUU | -3.17 ± 0.2 | -2.88 ± 0.18
10 | GCAUAGCAAUAUUACGGAAA | -1.6 ± 0.31 | -1.88 ± 0.25
11 | GCAUAGCAAUAUUACGGAUG | -3.15 ± 0.15 | -0.657 ± 0.13
12 | GCAUAGCAAUAUUACGGCCA | -1.05 ± 0.19 | -1.17 ± 0.21
13 | GCAUAGCAAUAUUACGUACA | -1.56 ± 0.15 | -0.421 ± 0.13
14 | GCAUAGCAAUAUUACGUGAU | -1.64 ± 0.066 | -0.927 ± 0.08
15 | GCAUAGCAAUAUUACGUGCA | -2.74 ± 0.17 | -1.21 ± 0.14
16 | GCAUAGCAAUAUUACGUGCU | -3.32 ± 0.15 | -3.44 ± 0.26
17 | GCAUAGCAAUAUUACGUUAG | -2.48 ± 0.12 | -1.96 ± 0.15
18 | GCAUAGCAAUAUUACGUUGG | -3.88 ± 0.22 | -2.28 ± 0.18
19 | GCAUAGCAAUAUUACGUUUG | -3.21 ± 0.13 | -1.91 ± 0.15
20 | GCCAAGCAAUAUUACGAACA | -2.36 ± 0.16 | -2.2 ± 0.17
21 | GCCAAGCAAUAUUACGAUAC | -2.45 ± 0.17 | -0.963 ± 0.14
22 | GCCAAGCAAUAUUACGAUUU | -2.95 ± 0.096 | -1.15 ± 0.09
23 | GCCAAGCAAUAUUACGCAGU | -2.82 ± 0.13 | -1.22 ± 0.14
24 | GCCAAGCAAUAUUACGCGAA | -1.2 ± 0.1 | -0.257 ± 0.11

Row | Sequence | self-splicing fitness (ln) (30 °C) | self-splicing fitness (ln) (37 °C)
25 | GCCAAGCAAUAUUACGCUUA | -1.02 ± 0.086 | -0.264 ± 0.11
26 | GCCAAGCAAUAUUACGGACU | -1.16 ± 0.077 | -0.389 ± 0.1
27 | GCCAAGCAAUAUUACGGAUU | -1.2 ± 0.056 | -0.294 ± 0.08
28 | GCCAAGCAAUAUUACGGGAC | -3.02 ± 0.15 | -0.694 ± 0.099
29 | GCCAAGCAAUAUUACGGGCA | -2.12 ± 0.14 | -0.482 ± 0.12
30 | GCCAAGCAAUAUUACGUAAA | -1.63 ± 0.1 | -0.72 ± 0.13
31 | GCCAAGCAAUAUUACGUGGU | -3.65 ± 0.13 | -3.27 ± 0.17
32 | GCCAAGCAAUAUUACGUGUG | -1.8 ± 0.07 | -0.823 ± 0.08
33 | GCCAAGCAAUAUUACGUUAG | -1.93 ± 0.12 | -2.64 ± 0.2
34 | GCCAAGCAAUAUUACGUUCU | -2.45 ± 0.081 | -1.53 ± 0.088
35 | GCCCAGCAAUAUUACGAAGC | -2.36 ± 0.19 | -0.479 ± 0.2
36 | GCCCAGCAAUAUUACGAGAU | -1.54 ± 0.12 | -0.957 ± 0.091
37 | GCCCAGCAAUAUUACGAUCA | -1.65 ± 0.11 | -0.633 ± 0.1
38 | GCCCAGCAAUAUUACGAUGA | -2.14 ± 0.18 | -0.287 ± 0.14
39 | GCCCAGCAAUAUUACGAUGU | 0.0553 ± 0.048 | 0.51 ± 0.069
40 | GCCCAGCAAUAUUACGCGUC | -1.17 ± 0.067 | -0.202 ± 0.075
41 | GCCCAGCAAUAUUACGCUGG | -2.86 ± 0.15 | -3.32 ± 0.28
42 | GCCCAGCAAUAUUACGGCAU | -3.47 ± 0.13 | -1.01 ± 0.1
43 | GCCCAGCAAUAUUACGGUAG | -4.78 ± 0.23 | -2.51 ± 0.19
44 | GCCCAGCAAUAUUACGGUCC | -3.39 ± 0.18 | -1.97 ± 0.28
45 | GCCCAGCAAUAUUACGUAAC | -0.899 ± 0.074 | -0.153 ± 0.1
46 | GCCCAGCAAUAUUACGUAUG | -3.42 ± 0.18 | -2.09 ± 0.18
47 | GCCCAGCAAUAUUACGUCAG | -3.98 ± 0.2 | -2.82 ± 0.23
48 | GCCCAGCAAUAUUACGUGAC | -1.38 ± 0.057 | -0.584 ± 0.069

Row | Sequence | self-splicing fitness (ln) (30 °C) | self-splicing fitness (ln) (37 °C)
49 | GCCCAGCAAUAUUACGUUGU | -0.273 ± 0.044 | 0.021 ± 0.056
50 | GCCCAGCAAUAUUACGUUUG | -3.95 ± 0.14 | -1.84 ± 0.14
51 | GCCGAGCAAUAUUACGAAAG | -2.81 ± 0.33 | –
52 | GCCGAGCAAUAUUACGACUG | -2.66 ± 0.23 | -3.53 ± 0.42
53 | GCCGAGCAAUAUUACGCCUC | -2.91 ± 0.42 | -1.88 ± 0.4
54 | GCCGAGCAAUAUUACGCGCU | -1.78 ± 0.2 | -2.77 ± 0.34
55 | GCCGAGCAAUAUUACGCGUC | -0.898 ± 0.14 | -0.0598 ± 0.2
56 | GCCGAGCAAUAUUACGGAAA | -0.987 ± 0.1 | -0.953 ± 0.1
57 | GCCGAGCAAUAUUACGGAUA | -1.68 ± 0.14 | -0.192 ± 0.13
58 | GCCGAGCAAUAUUACGGAUU | -1.37 ± 0.08 | -0.945 ± 0.092
59 | GCCGAGCAAUAUUACGGCGA | -0.848 ± 0.21 | -1.42 ± 0.24
60 | GCCGAGCAAUAUUACGGCGU | -2.55 ± 0.13 | -0.897 ± 0.1
61 | GCCGAGCAAUAUUACGGCUA | -2.04 ± 0.35 | -1.35 ± 0.27
62 | GCCGAGCAAUAUUACGGCUG | -3.31 ± 0.34 | -2.96 ± 0.38
63 | GCCGAGCAAUAUUACGGGAC | -0.849 ± 0.11 | -1.12 ± 0.15
64 | GCCGAGCAAUAUUACGGGCG | -1.18 ± 0.17 | -0.688 ± 0.18
65 | GCCGAGCAAUAUUACGGGGC | -4.27 ± 0.39 | -2.28 ± 0.27
66 | GCCGAGCAAUAUUACGGUCC | -3.18 ± 0.29 | -1.23 ± 0.33
67 | GCCGAGCAAUAUUACGUAUC | -2.66 ± 0.16 | -1.75 ± 0.13
68 | GCCGAGCAAUAUUACGUCCA | -1.27 ± 0.48 | -1.32 ± 0.32
69 | GCCGAGCAAUAUUACGUCCC | -0.316 ± 0.14 | -0.826 ± 0.22
70 | GCCGAGCAAUAUUACGUGAU | -1.01 ± 0.073 | -0.638 ± 0.088
71 | GCCGAGCAAUAUUACGUGGU | -3.39 ± 0.14 | -2.47 ± 0.16
72 | GCCGAGCAAUAUUACGUUAA | -3.34 ± 0.27 | -1.78 ± 0.18

Row | Sequence | self-splicing fitness (ln) (30 °C) | self-splicing fitness (ln) (37 °C)
73 | GCCUAGCAAUAUUACGAAAA | -3.05 ± 0.33 | -1.04 ± 0.26
74 | GCCUAGCAAUAUUACGAACC | -1.07 ± 0.27 | 0.0441 ± 0.29
75 | GCCUAGCAAUAUUACGAAUC | -1.36 ± 0.066 | 0.0359 ± 0.086
76 | GCCUAGCAAUAUUACGAAUG | -2.57 ± 0.18 | -2.43 ± 0.25
77 | GCCUAGCAAUAUUACGACCG | -1.8 ± 0.34 | -0.867 ± 0.39
78 | GCCUAGCAAUAUUACGACGG | -3.6 ± 0.31 | -2.37 ± 0.27
79 | GCCUAGCAAUAUUACGAGGC | -4.1 ± 0.36 | -1.77 ± 0.26
80 | GCCUAGCAAUAUUACGAUCC | -1.08 ± 0.093 | 0.0207 ± 0.13
81 | GCCUAGCAAUAUUACGAUGG | -3.13 ± 0.21 | -2.05 ± 0.21
82 | GCCUAGCAAUAUUACGCCUA | – | -2.79 ± 0.43
83 | GCCUAGCAAUAUUACGCGUA | -1.89 ± 0.13 | -0.683 ± 0.12
84 | GCCUAGCAAUAUUACGCUAU | -0.383 ± 0.11 | -0.105 ± 0.17
85 | GCCUAGCAAUAUUACGCUCA | -1.68 ± 0.16 | -0.0373 ± 0.17
86 | GCCUAGCAAUAUUACGCUCG | -2.7 ± 0.2 | -2.06 ± 0.3
87 | GCCUAGCAAUAUUACGCUGC | – | -1.32 ± 0.21
88 | GCCUAGCAAUAUUACGCUUU | -0.497 ± 0.097 | -0.0274 ± 0.12
89 | GCCUAGCAAUAUUACGGACC | -1.6 ± 0.19 | -1.31 ± 0.28
90 | GCCUAGCAAUAUUACGGACU | -1.01 ± 0.1 | -0.221 ± 0.11
91 | GCCUAGCAAUAUUACGGAUG | -1.84 ± 0.11 | -0.882 ± 0.12
92 | GCCUAGCAAUAUUACGGCAU | -3.27 ± 0.27 | -0.94 ± 0.13
93 | GCCUAGCAAUAUUACGGGUC | -4.6 ± 0.36 | -2.89 ± 0.25
94 | GCCUAGCAAUAUUACGGUAU | -0.978 ± 0.07 | -0.02 ± 0.08
95 | GCCUAGCAAUAUUACGGUCG | -3.36 ± 0.2 | -2.5 ± 0.25
96 | GCCUAGCAAUAUUACGGUCU | -1.12 ± 0.067 | -1.08 ± 0.078
